Test results published in patent publication US20040086528A1 (PROGENICS PHARMACEUTICALS, published 2004).
Substitutions are numbered along the chain they refer to.

T1: CCR5 K22A, HA-tagged (human, UniProt P51681 1-352)
T1 sequence: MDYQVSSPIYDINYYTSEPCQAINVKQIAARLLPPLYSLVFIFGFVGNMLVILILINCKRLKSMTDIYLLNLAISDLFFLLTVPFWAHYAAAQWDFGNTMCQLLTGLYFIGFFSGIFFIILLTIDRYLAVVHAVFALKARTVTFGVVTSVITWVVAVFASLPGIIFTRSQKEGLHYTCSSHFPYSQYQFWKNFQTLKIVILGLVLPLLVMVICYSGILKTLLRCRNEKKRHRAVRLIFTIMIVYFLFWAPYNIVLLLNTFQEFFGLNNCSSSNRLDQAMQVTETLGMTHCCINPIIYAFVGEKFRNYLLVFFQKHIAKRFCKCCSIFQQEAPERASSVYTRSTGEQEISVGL

T2: CCR5 Q93A, HA-tagged (human, UniProt P51681 1-352)
T2 sequence: T1 sequence with A22K, Q93A

T3: CCR5 D95A, HA-tagged (human, UniProt P51681 1-352)
T3 sequence: T1 sequence with A22K, D95A

T4: CCR5 Y184A, HA-tagged (human, UniProt P51681 1-352)
T4 sequence: T1 sequence with A22K, Y184A

B1: macrophage inflammatory protein (MIP)-1β, recombinant human (ligand, UniProt P13236 24-92, looked up)
chain: APMGSDPPTACCFSYTARKLPRNFVVDYYETSSLCSQPAVVFQTKRSKQVCADPSESWVQEYVYDLELN
B2: RANTES, recombinant human (ligand)
chain: SPYSSDTTPCCFAYIARPLPRAHIKEYFYTSGKCSNPAVVFVTRKNRQVCANPEKKWVREYINSLEMS

How the values were obtained:
Assay in all cases: cell-based or functional assay
CCR5 K22A, HA-tagged = molecular target: T1, CCR5 K22A, HA-tagged
CCR5 Q93A, HA-tagged = molecular target: T2, CCR5 Q93A, HA-tagged
CCR5 D95A, HA-tagged = molecular target: T3, CCR5 D95A, HA-tagged
CCR5 Y184A, HA-tagged = molecular target: T4, CCR5 Y184A, HA-tagged

Binder | relative % inhibition of NLluc/JR-FL entry into U87MG-CD4 cells by 2 µg/ml chemokine (wild-type = 100) (CCR5 K22A, HA-tagged) [%] | relative % inhibition of NLluc/JR-FL entry into U87MG-CD4 cells by 2 µg/ml chemokine (wild-type = 100) (CCR5 Q93A, HA-tagged) [%] | relative % inhibition of NLluc/JR-FL entry into U87MG-CD4 cells by 2 µg/ml chemokine (wild-type = 100) (CCR5 D95A, HA-tagged) [%] | relative % inhibition of NLluc/JR-FL entry into U87MG-CD4 cells by 2 µg/ml chemokine (wild-type = 100) (CCR5 Y184A, HA-tagged) [%]
B1 | 12 | 97 | 112 | 68
B2 | -11 | 114 | 121 | 36
